The record followed here is patent US20200199214A1 (Hoffmann-La Roche, published 2020).

In experiment [1] the target is T1, human IL-1 beta (PeproTech 200-01B) (human, UniProt P01584 117-269).
T1 construct: As printed it covers only the N-terminal part of the precursor, so it was not used; also called huIL-1 beta; IL1β
Description: SPR, Fab captured via anti-Fab antibody, human IL-1beta injected, 1:1 Langmuir fit; n = 4. How it is done:
(§1) An anti-Fab capturing antibody (GE Healthcare 28958325) was immobilized to a Series S Sensor Chip C1 (GE Healthcare 29104990) using standard amine coupling chemistry resulting in a surface density of approximately 500 resonance units (RU). The bispecific anti-VEGF/anti-IL-1beta Fab fragment was captured to the surface with resulting capture levels of approximately 20 RU. A dilution series ranging from 0.74 to 60 nM (1:3 dilution) of either human IL-1 beta (PeproTech 200-01B) or cynomolgus IL-1 beta (Sino Biological 90010-CNAE) was injected for 90 s, dissociation was monitored for at least 600 s at a flow rate of 30 μl/min. The surface was regenerated by two consecutive injections of 10 mM Glycine pH 2.1 for 60 s each. Bulk refractive index differences were corrected by subtracting blank injections and by subtracting the response obtained from the control flow cell without captured bispecific anti-VEGF/anti-IL-1beta Fab fragment. Curve fitting was performed using the 1:1 Langmuir binding model within the Biacore evaluation software.
Binding kinetics to VEGF and IL-1beta for the candidate antibodies were assessed as described in Example 3 using the indicated bispecific anti-VEGF/anti-IL-1beta Fab fragments (amino acid sequence as illustrated in Table 3). […]
A general note: Surface plasmon resonance follows binding to a sensor surface in real time, without labels.

Experiment [2] has as its target T2, cynomolgus IL-1 beta (Sino Biological 90010-CNAE) (cynomolgus, UniProt P79182 117-268).
T2 sequence (looked up): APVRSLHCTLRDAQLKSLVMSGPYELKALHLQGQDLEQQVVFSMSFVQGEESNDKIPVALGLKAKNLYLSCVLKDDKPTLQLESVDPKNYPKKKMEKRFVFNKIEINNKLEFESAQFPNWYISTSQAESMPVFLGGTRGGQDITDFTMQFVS
The experiment can be described thus: SPR, Fab captured via anti-Fab antibody, cynomolgus IL-1beta injected, 1:1 Langmuir fit. How it is done: as §1
(§2) Binding kinetics to VEGF and IL-1beta for the candidate antibodies were assessed as described in Example 3 using the indicated bispecific anti-VEGF/anti-IL-1beta Fab fragments (amino acid sequence as illustrated in Table 3). For comparison, antigen binding kinetics of prior art anti-VEGF/anti-IL-1beta antibody 0032, a full length IgG antibody, as disclosed in WO2016/075034 are depicted.

For experiment [3], the target named is T3, Human VEGF121-His (human, UniProt P15692-9 27-147).
T3 construct: not shown: His tag
T3 sequence (looked up): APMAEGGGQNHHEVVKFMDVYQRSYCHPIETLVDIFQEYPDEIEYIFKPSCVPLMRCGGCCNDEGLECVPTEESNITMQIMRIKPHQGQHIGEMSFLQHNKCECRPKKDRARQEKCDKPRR
The experiment can be described thus: SPR, VEGF121-His captured via anti-His antibody, Fab injected, single cycle kinetics, 1:1 Langmuir fit. How it is done: (§3) An anti-His capturing antibody (GE Healthcare 28995056) was immobilized to a Series S Sensor Chip C1 (GE Healthcare 29104990) using standard amine coupling chemistry resulting in a surface density of approximately 500 resonance units (RU). As running and dilution buffer, HBS-P+(10 mM HEPES, 150 mM NaCl pH 7.4, 0.05% Surfactant P20) was used. Human VEGF121-His was captured to the surface with resulting ligand densities of approximately 10 and 20 RU, respectively. A dilution series of the bispecific anti-VEGF/anti-IL-1beta Fab fragment (1.2-100 nM, 1:3 dilution) was successively injected for 90 s each, dissociation was monitored for 3600 s at a flow rate of 30 μl/min (single cycle kinetics). The surface was regenerated by injecting 10 mM Glycine pH 1.5 for 60 s. Bulk refractive index differences were corrected by subtracting blank injections and by subtracting the response obtained from the control flow cell without captured human VEGF121. Curve fitting was performed using the 1:1 Langmuir binding model within the Biacore evaluation software. To provide more robust fitting, the Multiple Rmax option was chosen for global fitting using both ligand densities.
as §2

Experiment [4] addresses T1, human IL-1 beta (PeproTech 200-01B). Description: SPR, Fab captured via anti-Fab antibody, human IL-1beta injected, 1:1 Langmuir fit. How it is done: as §1, §2
Experiment [5] shares this target. The experiment can be described thus: SPR, Fab captured via anti-Fab antibody, IL-1beta injected 0.74-60 nM, 1:1 Langmuir fit. How it is done:
as §1, §2

The target of the next experiment is T4, human VEGF121 (human, UniProt P15692-9 27-147).
T4 construct: No tag is stated for these preparations; Kept apart from VEGF121-His; also called HuVEGF121
T4 sequence (looked up): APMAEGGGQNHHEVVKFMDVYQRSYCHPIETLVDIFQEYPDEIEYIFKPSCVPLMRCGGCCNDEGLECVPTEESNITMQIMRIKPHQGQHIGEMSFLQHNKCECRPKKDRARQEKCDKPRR
The experiment can be described thus: competition ELISA: Fab preincubated with VEGF121, free VEGF121 bound to coated rhVEGFR-1-Fc detected; sheet title 'Competition ELISA VEGFR1-Fc, 8 pM VEGF121'. The protocol:
(§4) 96-well-Plates (Maxisorp Nunc-Immoplates) were coated with 50 μL/well rhVEGFR-1-Fc (R&D #321-FL-050) at a final concentration of 1 μg/ml in 200 mM NaHC0₃, pH 9.4 for 1 hour at room temperature.
(§5) Meanwhile, antibody Fab fragments of different concentrations were preincubated with VEGF for form an antibody Fab-VEGF premix as follows: A dilution series of antibody Fab fragment was prepared by adding 280 μl of a solution of antibody Fab fragments (409.6 nM antibody in PBST-1% BSA) into the wells of the first column of a round bottom 96-well PS plate. The individual wells of columns 2-12 of the same plate were filled with 140 μl PBST-1% BSA. Subsequently, 1:2 dilutions were performed by transferring 140 μl of the antibody solution into the next column, thorough mixing and proceed with transferring 140 μl of this diluted antibody solution to the next column. This is repeated until column 11. Excess of 140 μl were discarded so that all wells comprise 140 μl. Column 12 served as the control (blank). […] 50 μl of the dilution series of the respective antibody Fab fragment were added to the VEGF121, or VEGF165, respectively; mixed thoroughly and incubated for 1.5 hours at room temperature.
(§6) The rhVEGFR-1-Fc coated plates were washed two times with PBST and blocked for 45 min with 200 μl of 2% MPBST. After washing off the MPBST solution twice with PBST, 50 μl of the antibody Fab-VEGF premix were added to the plate and incubated for 1.5 hours at room temperature. Subsequently, the plates were washed twice with PBST. Then, 50 μl of a solution comprising biotinylated anti-VEGF antibody (R&D, BAF293; 1:2000 dilution in PBST) and SA-HRP (KPL, 14-30-00; 1:2000 dilution in PBST) was added and incubated for 30 min at room temperature. After 6× washing with PBST, 50 μl of TMB substrate solution (two-component HRP substrate (KPL, 34021); used at room temperature) was added and incubated for 30 min at room temperature. 50 μl of 1N H₂SO₄ was added and absorbance was read at 450 nm.
(In general: An ELISA detects its analyte on a solid surface through an enzyme-linked reagent.)

The target in experiment [6] is T3, Human VEGF121-His. Description: SPR, VEGF121-His captured via anti-His antibody, Fab injected 1.2-100 nM, single cycle kinetics, 1:1 Langmuir fit. The protocol: as §3, §2
Experiment [7] addresses T1, human IL-1 beta (PeproTech 200-01B). Description: SPR, Fab captured via anti-Fab antibody, human IL-1beta injected, 1:1 Langmuir fit (same values as Table 1). How it is done: as §1, §2
The next experiment concerns the target T5, VEGF165 (UniProt P15692-4 27-191).
T5 construct: also called VEGF165 (Humanzyme, HZ-1153)
Description: competition ELISA: Fab preincubated with VEGF165, free VEGF165 bound to coated rhVEGFR-1-Fc detected; sheet title 'Competition ELISA VEGFR1-Fc, 8 pM VEGF165'. The protocol: as §4, §5, §6

The target of experiment [8] is T3, Human VEGF121-His. Description: SPR, VEGF121-His captured via anti-His antibody, Fab injected, single cycle kinetics, 1:1 Langmuir fit (same values as Table 1). The protocol:
as §3, §2

B1: bispecific anti-VEGF/anti-IL-1beta Fab fragment 1HVL5.15 (Fab, V domains shown)
VH: DETLVESGGGLVKPGGSLRLSCAAEGMVFKWNDMSWVRQAPGKGLEWVGSISKKGDHKYLNTKFIGRFTISRDNEKDTLYLQMNSLRAEDTAVYYCAKDVGFFDIWGQGTLVTVSS
VL: AIYMHQEPSSLSASVGDRVTITCHGSYWLSSLMAWYQQKPGKAPKLLIYDAKYKHLGVPSRFSGSGSHEDYTLTISSLQPEDFATYYCQQYRYHPYTFGHGTKVEIKR
The term Kd denotes a measure of binding affinity in units of concentration. A higher Kd goes with weaker binding. What is called koff is the rate constant with which the complex falls apart. As usually defined, the kon is the second-order rate constant of association. What is called t½ is the time in which the quantity being followed falls by half. Read a high t½ as slow decline. With B1, in [1], the dissociation constant Kd turned out to be 0.059 nM and the “t 1/2” value was determined as 1.82 h. In experiment [2], this molecule yielded a Kd of 0.045 nM, a koff of 0.000118 s⁻¹, an on-rate constant (kon) of 2.6e+06 M⁻¹ s⁻¹ and a t½ of 1.63 h. Besides, in the experiment with Human VEGF121-His [3], the dissociation constant Kd came to 0.01 nM, the off-rate (koff) turned out to be 1.47e-05 s⁻¹, the kon came to 1.53e+06 M⁻¹ s⁻¹ and the t½ was 13.2 h. Moreover, in [4], the koff amounted to 0.000107 s⁻¹ and the kon was 1.66e+06 M⁻¹ s⁻¹.

B2: bispecific anti-VEGF/anti-IL-1beta Fab fragment 1HVL2.3 (Fab, V domains shown)
VH: EQLVESGGGLVKPGGSLRLSCAASGMVFSWNAMSWVRQAPGKGLEWVGSISPKGDHKYLNTKFIGRFTISRDNSKNTLYLQMNSLRAEDTAVYYCAKDIGFFDVWGQGTLVTVSS
VL: AIYMHQEPSSLSASVGDRVTITCHGSYWLSNYLAWYQQKPGKAPKLLIYDASYRIIGVPSRFSGSGSHEDYTLTISSLQPEDFATYYCQQYRYHPYTFGHGTKVEIKR
notes: First expressed in E. coli TG1, later in HEK293
Consider B2, for which the Kd in [5] worked out at 4.57 nM; in experiment [2] it was 5.79 nM; in the experiment with Human VEGF121-His [6], 0.008 nM; in [7], 4.57 nM; with Human VEGF121-His [8], 0.008 nM. In addition, the koff in experiment [5] came out at 0.0256 s⁻¹; in experiment [2], 0.0182 s⁻¹; with Human VEGF121-His [6], 1.45e-05 s⁻¹; in experiment [7], 0.0256 s⁻¹; in the experiment with Human VEGF121-His [8], 1.45e-05 s⁻¹. Moreover, the kon came to 5.61e+06 M⁻¹ s⁻¹ in experiment [5]; 3.14e+06 M⁻¹ s⁻¹ in experiment [2]; 1.75e+06 M⁻¹ s⁻¹ with Human VEGF121-His [6]; 5.61e+06 M⁻¹ s⁻¹ in experiment [7]; 1.75e+06 M⁻¹ s⁻¹ with Human VEGF121-His [8]. Further, the t 1/2 in [5] was 30 s; with Human VEGF121-His [6], 13.3 h; in experiment [7], 30 s. For the same molecule, the figures for the t½ (in experiment [2]; with Human VEGF121-His [8]) were 0.01 h and 13.3 h, respectively. In addition, the “IC50 (read off the curve)” value is roughly 0.08 nM with human VEGF121 and roughly 0.2 nM with VEGF165.

B3: bispecific anti-VEGF/anti-IL-1beta Fab fragment 1HVL12.85 (Fab, V domains shown)
VH: DEQLVESGGGLVKPGGSLRLSCAAEGMVFKWNDMSWVRQAPGKGLEWVGSISKKGDHKYLNTKFIGRFTISRDNEKDTLYLQMNSLRAEDTAVYYCAKDVGFFDIWGQGTLVTVSS
VL: AIYMHQEPSSLSASVGDRVTITCHGSYWLSSLVAWYQQKPGKAPKLLIYDAKYKHLGVPSRFSGSKEDQEFTLTISSLQPEDFATYYCQQYRYHPYTFGHGTKVEIKR
Turning to B3, in [2], binding was characterised by a dissociation constant (Kd) of 0.02 nM, the koff is 6.54e-05 s⁻¹, the on-rate (kon) stood at 3.34e+06 M⁻¹ s⁻¹ and the t½ was 2.95 h. In addition, the “IC50 (read off the curve)” value in the experiment with human VEGF121 was roughly 0.04 nM. Besides, in the experiment with VEGF165, the “IC50 (read off the curve)” value was roughly 0.09 nM. In the experiment with Human VEGF121-His [3], this molecule came in with a dissociation constant (Kd) of 0.006 nM, a dissociation rate constant (koff) of 1.51e-05 s⁻¹, an on-rate constant (kon) of 2.5e+06 M⁻¹ s⁻¹ and a t½ of 12.7 h. In experiment [4], the affinity, expressed as Kd, was 0.028 nM; the koff worked out at 0.000135 s⁻¹; the kon stood at 4.76e+06 M⁻¹ s⁻¹; the “t 1/2” value turned out to be 1.43 h.
